Assay results reported in patent publication US20250250308A1, “METHODS AND COMPOSITIONS WITH ANTIFUNGAL ACTIVITY” (priority 2022, published 2025).

Tests used:
[1] = test system: C. neoformans; assay: Survival of C. elegans infected with C. neoformans; format: in vivo; conditions: 1 nM peptide
Experimental: FIGS. 6A-6D: EntV peptides have activity against many fungal species and strains. Survival over time of C. elegans infected with C. auris, (FIG. 6A), C. neoformans, (FIG. 6B), and C. albicans, (FIG. 6C), paired clinical isolates before (AzS: fluconazole-susceptability) and after gaining fluconazole resistance (AzR), (FIG. 6D). Peptides were added at 1 nM and fluconazole at 4 ug/ml. Statistical differences in survival were compared to animals to the DMSO vehicle control by Mantel-Cox log rank analysis. An n of 60 was used and one representative trial is shown. Exact p values from top to bottom: (FIG. 6A) <0.0001, <0.0001, (FIG. 6B) <0.0001, <0.0001, (FIG. 6C) 0.0013, 0.0004, 0.0035, (FIG. 6D) 0.0050, 0.0040, 0.5539.
EntV peptides have activity against other fungal species and strains. […] Paired clinical isolates of C. albicans, in which fluconazole-resistance had been gained following in-patient evolution were tested and it was determined that animals infected with both the original strain as well as the fluconazole-resistant descendent were protected by EntV ([…]).
Killing of C. elegans by C. albicans. […] Plates were incubated at 25° C., and worm death was scored daily. Kaplan-Meier survival curves were generated and analyzed as described in the quantification and statistical analysis section.

[2] = test system: C. albicans; assay: Growth of C. albicans in shaking cultures; format: cell-based
Experimental: These shorter peptides are no longer bacteriocins, having separated the antifungal and antibacterial activities. Furthermore, despite its robust protection against infection, EntV is not toxic to C. albicans. Growth of C. albicans was unaffected when EntV was added to shaking cultures in concentrations as high as 30 μM

[3] = test system: human cells; conditions: cited from earlier work
[4] = test system: C. albicans; assay: Killing of C. elegans by C. albicans (survival of infected nematodes); format: in vivo; conditions: original strain and fluconazole-resistant descendent; 1 nM

## VAGQLALWAVQC [12aa]
[1]
  Survival of C. elegans infected with C. neoformans: protected C. neoformans infected worms from death

B1: EntV: 68 amino acid active C-terminal form of the E. faecalis bacteriocin EntV (SEQ ID NO: 14) (protein, listed as Enterococcus faecalis)
chain: LGSCVANKIKDEFFAMISISAIVKAAQKKAWKELAVTVLRFAKANGLKTNAIIVAGQLALWAVQCGLS
[2]
  Highest concentration at which growth of C. albicans was unaffected: ≥ 30 µM
[3]
  Toxicity to human cells: no toxicity
[4]
  Protection of C. elegans infected with paired C. albicans clinical isolates: protected
